The text below walks through data of patent US20090111753A1, “Nogo-A Polypeptide Fragments, Variant Nogo Receptor-1 Polypeptides, and Uses Thereof” (Yale University, priority 2004, published 2009).

One assay addresses T1, NgR (Homo sapiens, UniProt Q9BZR6).
T1 construct: expressed in transfected cells; host or cells: COS-7
T1 sequence (Q9BZR6 27-447): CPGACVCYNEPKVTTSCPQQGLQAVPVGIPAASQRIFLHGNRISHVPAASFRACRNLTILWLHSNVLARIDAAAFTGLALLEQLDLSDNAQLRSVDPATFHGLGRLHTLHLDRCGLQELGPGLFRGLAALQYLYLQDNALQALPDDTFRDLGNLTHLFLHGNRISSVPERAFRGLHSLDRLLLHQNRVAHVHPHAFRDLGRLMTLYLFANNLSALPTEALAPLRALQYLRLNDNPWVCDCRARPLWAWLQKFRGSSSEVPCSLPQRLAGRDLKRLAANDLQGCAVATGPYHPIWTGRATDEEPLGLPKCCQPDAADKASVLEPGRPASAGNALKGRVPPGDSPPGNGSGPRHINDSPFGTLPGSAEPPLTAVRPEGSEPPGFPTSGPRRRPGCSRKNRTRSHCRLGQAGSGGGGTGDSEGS
Nature of the assay: AP fusion protein binding to NgR expressing COS-7 cells. As to conditions: for binding to NgR (COS-7 cells expressing NgR): qualitative. An excerpt:
Several alkaline phosphatase (AP) fusion proteins containing various Nogo-A segments derived from regions between the amino terminus and the first hydrophobic segment were examined to identify the mechanism of Amino-Nogo-A action. To generate additional AP fusion proteins, human amino Nogo fragments were amplified and ligated to the pcAP6 vector digested with restriction enzymes EcoRI and XhoI as described (Fournier, A. E., et al., Nature 409:341-346 (2001)). Plasmids were then transfected into HEK293T cells and conditioned media were collected after 7 days. None of these fragments bind with high affinity to non-transfected COS-7 cells. […] This binding is saturable with a Kd indistinguishable from that for AP-Nogo-66 association with NgR (Table I). To better define the region responsible for Amino-Nogo interaction with NgR, a range of truncation mutants of Amino-Nogo were examined as AP fusion proteins. […] In fact, the NgR-interacting segment of Amino-Nogo is fully accounted for in the extreme carboxyl 24 amino acids (aa 995-1018, Amino-Nogo-A-24) (Table I and FIG. 1D). […] We named this domain (aa 995-1013) as Amino-Nogo-A-19.
Binding Kds for AP fused Amino-Nogo fragments were measured by applying conditioned media containing AP fusion protein to NgR expressing COS-7 cells. Bound AP was stained and measured.
It has been recognized that the Amino-Nogo-A protein inhibits non-neuronal cell spreading and axonal outgrowth when the protein is substrate bound (Chen, M. S., et al., Nature 403:434-439 (2000); Fournier, A. E., et al., Nature 409:341-346 (2001)). […] The later domain has been termed Δ20. To determine whether the NgR-interacting aa of Amino-Nogo-A described in Example 1 regulate cell spreading and axonal outgrowth, various fragments were expressed as GST fusion proteins and purified from E. coli. To generate GST fusion proteins, amino Nogo fragments were cloned in pGEX2T (Amersham Pharmacia). Native and soluble GST fusion proteins were expressed and purified as described (GrandPre, T., et al., Nature 403:439-444 (2000)). COS-7 binding assays were done as described (Fournier, A. E., et al., Nature 409:341-346 (2001)). Bound AP to COS-7 cells was measured using NIH image software. Fibroblast spreading and cDRG outgrowth assay were done as described (Fournier, A. E., et al., Nature 409:341-346 (2001)) with some modifications. Briefly, 50 μl of purified GST fusion protein or peptides diluted in PBS was pipetted into polylysine precoated 96 well plates (Becton Dickson Biocoat plates) and dried overnight at room temperature. For fibroblast spreading assay, subconfluent COS-7 cells were then plated for 1 hour in serum containing medium before fixation and staining with rho damine-phalloidin.

A further assay has as its target T2, AP-Nogo-66 (UniProt Q9NQC3 1055-1120).
T2 construct: domain: Nogo-66; construct described elsewhere (Fournier 2001); also called AP-Ng66; Ng66; not shown: alkaline phosphatase (AP); construct described elsewhere
T2 sequence (looked up): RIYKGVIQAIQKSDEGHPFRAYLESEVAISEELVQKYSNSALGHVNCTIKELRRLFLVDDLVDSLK
Nature of the assay: AP-ligand binding, COS-7.

The target of assay [1] is T3, AP fusion protein with the B4C fragment of Amino-Nogo-A fused directly to Nogo-66 (human, UniProt Q9NQC3 1055-1120).
T3 construct: domain: Nogo-66; also called AP-B4C66; AP-B4C-66; not shown: alkaline phosphatase (AP), vector pcAP6
T3 sequence: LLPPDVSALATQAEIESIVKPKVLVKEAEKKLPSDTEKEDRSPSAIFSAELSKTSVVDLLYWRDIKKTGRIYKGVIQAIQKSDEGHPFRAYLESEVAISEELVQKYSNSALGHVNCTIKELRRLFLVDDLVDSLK
Nature of the assay: AP-ligand binding, COS-7.

The target in assay [2] is T4, AP-fused Amino-Nogo fragment B4C (a.a. 950-1018) (human, UniProt Q9NQC3 950-1018).
T4 construct: also called AmNg B4C; AP-B4C; not shown: alkaline phosphatase (AP), vector pcAP6
T4 sequence: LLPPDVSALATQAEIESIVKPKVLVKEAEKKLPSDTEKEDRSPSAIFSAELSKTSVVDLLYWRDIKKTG
Nature of the assay: AP-ligand binding, COS-7.

A further assay deals with NgR ligands. Nature of the assay: Binding of alanine substituted NgR mutants to NgR ligands, summary categories. As to conditions: AP-Nogo66, AP-B4C, AP-B4C66, AP-Lingo-1, AP-OMgp and AP-MAG; compared to wild type NgR. The gist of the method: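 Human NgR1 template; 74 mutants with 1-8 solvent-exposed charged surface residues (within 5 Å) Ala-substituted, plus glycosylation-site mutants and D259N polymorphism. Mutants tested for binding of AP-tagged Nogo66, Amino-Nogo-B4C, B4C66, MAG, OMgp and Lingo-1; each classed as losing all, keeping all, or selective ligand binding.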

Where [3] appears, read: AP fused Amino-Nogo fragments in conditioned media on NgR expressing COS-7 cells, 'No binding at' cells continue on the next line: AmNg A 150 nM, a.a. 1000-1018, a.a. 1005-1018, Amino of NgC 25 nM, a.a. 950-1004 50 nM, Amino of NgB 100 nM.

B1: Amino of NgB: AP fusion protein of Amino-Nogo residues of Nogo-B (protein)
chain: MEDLDQSPLVSSSDSPPRPQPAFKYQFVREPEDEEEEEEEEEEDEDEDLEELEVLERKPAAGLSAAPVPTAPAAGAPLMDFGNDFVPPAPRGPLPAAPPVAPERQPSWDPSPVSSTVPAPSPLSAAAVSPSKLPEDDEPPARPPPPPPASVSPQAEPVWTPPAPAPAAPPSTPAAPKRRGSSGSVVVDLLYWRDIKKTG
modifications: left off: large carriers
notes: AP fusion protein of Amino-Nogo residues of Nogo-B
Take B1: the “NgR Kd (nM)” value in the assay with NgR (setting [3]) is “No binding”. Moreover, the “binding to NgR (COS-7 cells expressing NgR)” value in the assay with NgR was “fail to associate with NgR-expressing cells”.

B2: AP-B4C-66: AP fusion protein with the B4C fragment of Amino-Nogo-A fused directly to Nogo-66 (protein)
chain: LLPPDVSALATQAEIESIVKPKVLVKEAEKKLPSDTEKEDRSPSAIFSAELSKTSVVDLLYWRDIKKTGRIYKGVIQAIQKSDEGHPFRAYLESEVAISEELVQKYSNSALGHVNCTIKELRRLFLVDDLVDSLK
modifications: left off: large carriers
Consider B2, for which, in the assay with NgR (NgR expressing COS-7 cells, FIGS. 6A and 6B), the “Kd for binding of AP-B4C-66 to NgR” value is reported as “subnanomolar”.

B3: a.a. 877-1018 (AmNg B4): AP fusion protein of Amino-Nogo fragment B4, aa 877-1018 (protein)
chain: SKTDSFSKLAREYTDLEVSHKSEIANAPDGAGSLPCTELPHDLSLKNIQPKVEEKISFSDDFSKNGSATSKVLLLPPDVSALATQAEIESIVKPKVLVKEAEKKLPSDTEKEDRSPSAIFSAELSKTSVVDLLYWRDIKKTG
modifications: left off: large carriers
For orientation: Kd means the constant that tells how readily two partners part at equilibrium. A lower Kd goes with a tighter complex. In turn, B3 gave an equilibrium dissociation constant (Kd) with NgR (setting [3]) of 9.01 ± 6.36 nM.

B4: human NgR1 alanine mutant 117, 119, 120, 139 (receptor)
chain: CPGACVCYNEPKVTTSCPQQGLQAVPVGIPAASQRIFLHGNRISHVPAASFRACRNLTILWLHSNVLARIDAAAFTGLALLEQLDLSDNAALAAVDPATFHGLGRLHTLHLDACGLQELGPGLFRGLAALQYLYLQDNALQALPDDTFRDLGNLTHLFLHGNRISSVPERAFRGLHSLDRLLLHQNRVAHVHPHAFRDLGRLMTLYLFANNLSALPTEALAPLRALQYLRLNDNPWVCDCRARPLWAWLQKFRGSSSEVPCSLPQRLAGRDLKRLAANDLQGCAVATGPYHPIWTGRATDEEPLGLPKCCQPDAADKASVLEPGRPASAGNALKGRVPPGDSPPGNGSGPRHINDSPFGTLPGSAEPPLTAVRPEGSEPPGFPTSGPRRRPGCSRKNRTRSHCRLGQAGSGGGGTGDSEGSGALPSLTCSLTPLGLALVLWTVLGPC
With B4, the binding result (in the assay with AP-Nogo-66; in assay [1]; in assay [2]) was “no binding” throughout. Further, the “ligand binding category of NgR mutant (Table II)” value (shortened to “ligand binding category”) with NgR ligands is listed as “No binding”.

B5: human NgR1 alanine mutant 95, 97, 188, 189, 191, 192 (receptor)
chain: CPGACVCYNEPKVTTSCPQQGLQAVPVGIPAASQRIFLHGNRISHVPAASFRACRNLTILWLHSNVLAAIAAAAFTGLALLEQLDLSDNAQLRSVDPATFHGLGRLHTLHLDRCGLQELGPGLFRGLAALQYLYLQDNALQALPDDTFRDLGNLTHLFLHGAAIAAVPERAFRGLHSLDRLLLHQNRVAHVHPHAFRDLGRLMTLYLFANNLSALPTEALAPLRALQYLRLNDNPWVCDCRARPLWAWLQKFRGSSSEVPCSLPQRLAGRDLKRLAANDLQGCAVATGPYHPIWTGRATDEEPLGLPKCCQPDAADKASVLEPGRPASAGNALKGRVPPGDSPPGNGSGPRHINDSPFGTLPGSAEPPLTAVRPEGSEPPGFPTSGPRRRPGCSRKNRTRSHCRLGQAGSGGGGTGDSEGSGALPSLTCSLTPLGLALVLWTVLGPC
B5: the binding result (with AP-Nogo-66; in assay [1]; in assay [2]) was “no binding” throughout. In the assay with NgR ligands, the “ligand binding category” value was “No binding”.

B6: human NgR1 alanine mutant 202, 205, 227, 250, 277, 279 (receptor)
chain: CPGACVCYNEPKVTTSCPQQGLQAVPVGIPAASQRIFLHGNRISHVPAASFRACRNLTILWLHSNVLARIDAAAFTGLALLEQLDLSDNAQLRSVDPATFHGLGRLHTLHLDRCGLQELGPGLFRGLAALQYLYLQDNALQALPDDTFRDLGNLTHLFLHGNRISSVPERAFRGLASLARLLLHQNRVAHVHPHAFRDLGALMTLYLFANNLSALPTEALAPLAALQYLRLNDNPWVCDCRARPLWAWLQAFAGSSSEVPCSLPQRLAGRDLKRLAANDLQGCAVATGPYHPIWTGRATDEEPLGLPKCCQPDAADKASVLEPGRPASAGNALKGRVPPGDSPPGNGSGPRHINDSPFGTLPGSAEPPLTAVRPEGSEPPGFPTSGPRRRPGCSRKNRTRSHCRLGQAGSGGGGTGDSEGSGALPSLTCSLTPLGLALVLWTVLGPC
Turning to B6, the binding result (with AP-Nogo-66; in assay [1]; in assay [2]) was “no binding” in each case. In addition, in the assay on NgR ligands, the “ligand binding category” value is on record as “No binding”.

B7: a.a. 622-1018 (AmNg B): AP fusion protein of the carboxyl half of Amino-Nogo (fragment B), aa 622-1018 (protein)
chain: SAVPSAGASVIQPSSSPLEASSVNYESIKHEPENPPPYEEAMSVSLKKVSGIKEEIKEPENINAALQETEAPYISIACDLIKETKLSAEPAPDFSDYSEMAKVEQPVPDHSELVEDSSPDSEPVDLFSDDSIPDVPQKQDETVMLVKESLTETSFESMIEYENKEKLSALPPEGGKPYLESFKLSLDNTKDTLLPDEVSTLSKKEKIPLQMEELSTAVYSNDDLFISKEAQIRETETFSDSSPIEIIDEFPTLISSKTDSFSKLAREYTDLEVSHKSEIANAPDGAGSLPCTELPHDLSLKNIQPKVEEKISFSDDFSKNGSATSKVLLLPPDVSALATQAEIESIVKPKVLVKEAEKKLPSDTEKEDRSPSAIFSAELSKTSVVDLLYWRDIKKTG
modifications: left off: large carriers
In the assay with NgR (setting [3]), B7 displayed an equilibrium dissociation constant (Kd) of 6.66 ± 1.49 nM. In addition, the “binding to NgR (COS-7 cells expressing NgR)” value with NgR is reported as “high affinity binding”.
